{
  "source": "patent US7271245B2",
  "about": "“Methods and compositions for inhibition of metastasis” (The Scripps Research Institute, priority 2004, dated 2007)",
  "key": {"[1]": {"test_system": "Integrin αIIβ3 mediated adhesive platelet functions", "test": "Platelet adhesion and thrombus formation during blood perfusion", "format": "cell-based, human", "details": "3 μM scFv", "experimental": "Tumor cell arrest during bloodflow. Breast cancer cell arrest during blood flow and interaction with platelets was measured as described. Felding-Habermann, et al., Proc. Natl. Acad. Sci. U.S.A 98: 1853-1858, 2001. Felding-Habermann et al., J. Biol. Chem. 271: 5892-5900, 1996. Briefly, tumor cells were suspended in human blood anticoagulated with 50 nM PPACK and perfused over a collagen I matrix at a venous wall shear rate of 50 s^−1, 2 dynes/cm^2. Adhesive events and cell interactions were visualized and recorded by fluorescence video microscopy and quantified by image acquisition at 30 predefined positions followed by computerized image analysis (MetaMorph, Universal Imaging). Tumor cells were stained with hydroethidine (red fluorescence) (20 μg/ml, 30 min, 37° C.), washed, and mixed with blood containing 10 μM mepacrine (green fluorescence). Blood cells, tumor cells, and platelets acquired green fluorescence and were visualized at 488/515 nm (excitation/emission). Tumor cells were identified by their unique red fluorescence at 543/590 nm. To test inhibition, tumor cells were incubated with 3 μM scFv for 5 min at 37° C., then mixed into blood, scFv added to 3 μM final concentration and perfused immediately.\nIn the circulation, metastatic tumor cells are intensely exposed to a cancer patient's immune surveillance, encountering potential function blocking antibodies like Bc-12 and Bc-15. […]"}, "integrin αvβ3": {"test_system": "integrin αvβ3", "test": "Flow cytometry, scFv binding to human tumor cell panel", "experimental": "FIGS. 1A, 1B, 1C. Patient derived scFvs Bc-12 and Bc-15 recognize tumor cell integrin αvβ3 in a cation and activation dependent manner. Flow cytometric analyses in TBS with or without 1 mM Ca^2+, 1 mM Mg^2+, or 0.2 mM Mn^2+ as indicated. Binding of soluble scFv detected after incubation with anti-Flag M2 murine mAb followed by FITC-anti mouse F(ab′)2. (A) scFv binding to human melanoma cells (M21: αvβ3 plus other αv integrins) (M21-LIIb: αIIbβ3, no αv integrins) or lung adenocarcinoma cells (UCLA-P3: αv integrins, no β3 integrin). (B) scFv binding to M21 melanoma cells. (C) scFv binding to variants of MDA-MB 435 human breast cancer cells that lack (β^3−) or express αvβ3 either in a non-activated (β3WT, ParentCo) or activated form (β3D723R, Bone, Lung, and BMS metastatic cancer cells isolated from breast cancer patient blood).\nFlow cytometry. scFv binding to human tumor cells was analyzed by flow cytometry, initially with cloned scFv phage and then with purified scFv protein. Per sample, 2×10^5 tumor cells were blocked with goat serum and incubated either with scFv phage (2-5×10^10) (1 h at RT) followed by mouse anti-M13 mAb (Serotec) (30 min on ice) and goat FITC-anti mouse (Pierce) (30 min on ice), or with purified scFv (1.25 to 40 μg/ml, routinely 10 to 15 μg/ml) (45 min on ice), followed by mouse anti-FLAG mAb M2 (Sigma) (30 min on ice) and goat FITC-anti mouse. Binding/washing buffer was TBS with or without divalent cations (1 mM Ca^2+, 1 mM Mg^2+, 0.2 mM Mn^2+). Alternatively, tumor cells were washed in 10 ml of plasma (prepared freshly from human blood anticoagulated with 50 nM D-Phe-D-Pro-D-arginyl chloromethyl ketone, PPACK, Felding-Habermann et al., J. Biol. Chem. 271: 5892-5900, 1996), resuspended in plasma and then incubated sequentially, without washing, with purified scFv (45 min on ice), followed by anti-FLAG M2 (30 min on ice) and FITC-anti mouse (30 min on ice). All samples were counter stained with propidium iodide (PI) and analyzed on a Becton-Dickinson FACScan, with live gate set to exclude PI positive cells.\nTo generate therapeutic reagents that specifically react with activated αvβ3, a phage display library of single chain antibody fragments (scFv) was exploited. This library was derived from cancer patient blood lymphocyte cDNA libraries and allowed us to test the hypothesis that the expressed immune repertoire contains antibodies that recognize integrin αvβ3, and distinguish between its activated and non-activated forms. Mao et al., Proc. Natl. Acad. Sci. U.S.A 96: 6953-6958, 1999. A subtractive panning approach was designed based on variants of MDA-MB 435 human breast cancer cells. […] Apparently, these cells are selected during metastasis, as variant cells isolated from lung and bone metastases in immune deficient mice express constitutively activated αvβ3. To establish a cell population that uniformly expresses non-activated αvβ3, MDA-MB 435 parental cells were cloned by limiting dilution, and clones tested for αvβ3 functionality. […] A cell line, MDA-MB 435 Lung-Lung, was established which expressed αvβ3 in a constitutively activated form. This variant stems from a lung metastase of an immune deficient mouse whose mammary fat pad had been injected with parental MDA-MB 435 cells. Felding-Habermann et al., Proc. Natl. Acad. Sci. U.S.A 98: 1853-1858, 2001; Rolli et al., Proc. Natl. Acad. Sci. U.S.A 100: 9482-9487, 2003. To enrich for the ability to colonize the lung from the blood stream, the Lung variant was subsequently injected intravenously, and tumor cells cultured 3 weeks later from the excised lung. Parent Combo cells were used to subtract the scFv phage library to eliminate antibodies against antigens shared by the MDA-MB 435 cell variants. […]"}},
  "data": [
    {"molecule": "Bc-12: patient derived human scFv antibody against activated αvβ3 with RGD motif in CDR-H3; cDNA ATCC PTA-6303 (protein) scFv: MAQVQLVQSGAEVKKPGASVKVSCKASGYTFSNYGITWVRQAPGQGLEWMGWINNGNTHYAQKFQGRVTMTTDTSTSTAYMELRSLRSDDTAVYYCARDPRGDDEPYWGQGTLVTVSSGGGGSGGGGSGGGGSEIVLTQSPLSLPVTLGQPASISCRSSQNLVYSDGNTYLSWFQQRPGQSPRRLIYKVSNRDSGVPDRFSGSGSGTDFTLKISRVEAEDIGVYYCMQGTHWPPRTFGQGTKVEIKRGLGGLVDYKDDDDK", "values": [
      {"measurement": "adhesive platelet functions", "setting": "[1]", "value": "not affected"},
      {"measurement": "binding in the presence of Mn2+", "setting": "integrin αvβ3; 0.2 mM Mn^2+", "value": "greatly enhanced"},
      {"measurement": "binding in the presence of Mg2+", "setting": "integrin αvβ3; 1 mM Mg^2+, M21 cells", "value": "at the same level as Ca^2+"},
      {"measurement": "effect of Ca2+ on Mn2+ enhanced binding", "setting": "integrin αvβ3; Ca^2+ combined with Mn^2+, M21 cells", "value": "reduced the enhancing effect of Mn^2+"},
      {"measurement": "reactivity with human tumor cells that express or lack αvβ3", "setting": "integrin αvβ3; M21, M21-LIIb, UCLA-P3 cells, flow cytometry", "value": "reacted only with cells expressing the αvβ3 heterodimer"},
      {"measurement": "binding to M21-L cells", "setting": "integrin αvβ3; M21-L cells (no αv integrins)", "value": "failed to bind"},
      {"measurement": "cation requirement of binding", "setting": "integrin αvβ3; TBS with or without divalent cations", "value": "showed a cation dependence"},
      {"measurement": "binding in the presence of Ca2+", "setting": "integrin αvβ3; physiological Ca^2+ levels (1 mM)", "value": "measurable"},
      {"measurement": "reactivity with M21-L4 cells", "setting": "integrin αvβ3; αvβ3 expression restored by transfection", "value": "did react"}
    ]}
  ]
}
